Measurements reported in US20120208867, “HMGB1 BINDING NUCLEIC ACID MOLECULE AND APPLICATIONS THEREOF” (published 2012).

B1: 2'F-CU-#06 (ssRNA)
RNA: GGGACGCUCACGUACGCUCAUACACUGCACGCUCCGCUUUGAACAUCAAUGGAGGCCCUGUCAGUGCCUGGACGUGCAGU
modifications: 2'-F on all C and U
B2: 2'F-U-#06 (ssRNA)
RNA: GGGACGCUCACGUACGCUCAUACACUGCACGCUCCGCUUUGAACAUCAAUGGAGGCCCUGUCAGUGCCUGGACGUGCAGU
modifications: 2'-F on all U
B3: 2'F-C-#06 (ssRNA)
RNA: GGGACGCUCACGUACGCUCAUACACUGCACGCUCCGCUUUGAACAUCAAUGGAGGCCCUGUCAGUGCCUGGACGUGCAGU
modifications: 2'-F on all C
B4: 2'F-CU-#80 (ssRNA)
RNA: GGGACGCUCACGUACGCUCACAUCUGAAUUUAAGCCACGUAGAACCAGGCCCUCCACGCGUCAGUGCCUGGACGUGCAGU
modifications: 2'-F on all C and U
B5: 2'F-U-#80 (ssRNA)
RNA: GGGACGCUCACGUACGCUCACAUCUGAAUUUAAGCCACGUAGAACCAGGCCCUCCACGCGUCAGUGCCUGGACGUGCAGU
modifications: 2'-F on all U
B6: 2'F-C-#80 (ssRNA)
RNA: GGGACGCUCACGUACGCUCACAUCUGAAUUUAAGCCACGUAGAACCAGGCCCUCCACGCGUCAGUGCCUGGACGUGCAGU
modifications: 2'-F on all C

Molecular target: T1, His-tagged HMGB1 (UniProt P09429 P09429:1-215)
T1 sequence (P09429 whole entry, one chain of several): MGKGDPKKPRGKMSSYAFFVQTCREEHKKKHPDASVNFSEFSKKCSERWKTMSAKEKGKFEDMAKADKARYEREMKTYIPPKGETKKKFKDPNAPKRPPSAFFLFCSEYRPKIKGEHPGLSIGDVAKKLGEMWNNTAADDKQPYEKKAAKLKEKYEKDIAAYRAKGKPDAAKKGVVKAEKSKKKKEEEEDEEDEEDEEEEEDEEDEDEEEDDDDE
Assay: SPR; 150 nM protein
Conditions: tags: N-terminal His-tag
Description: (§1) The ability of each of the aforementioned RNA aptamers to bind to HMGB1 in which His-tag was added to the N-terminus (His-tag-added HMGB1) was examined. For the analysis of the aforementioned binding ability, a BIACORE (registered trademark) X (manufactured by GE Healthcare) was used according to its instruction manual.
(§2) First, a sensor chip (trade name: Sensor Chip SA, manufactured by GE Heathcare) specially made for a BIACORE was set on the aforementioned BLACORE (registered trademark) X. Biotinylate deoxythymidine (5 μmol/L) was injected into the flow cell 2 of the aforementioned sensor chip using a running buffer and subjected to binding until the signal intensity (RU: resonance unit) reached about 1000 RU. For the aforementioned biotinylated deoxythymidine, 20-base-long deoxythymidine in which the 5′ end was biotinylated was used. Then, 10 μg/mL of an RNA aptamer was injected at a flow rate of 20 μL/min for 1 min into the aforementioned flow cells 1 and 2 of the aforementioned chip using a running buffer and subjected to binding until the signal intensity reached about 1000 RU. Next, […] for 30 sec using the aforementioned running buffer, and under the same conditions the aforementioned running buffer was allowed to flow continuously for washing. Simultaneously with the injection of the aforementioned His-tag-added HMGB1 and washing with the aforementioned running buffer, signal intensity was measured. The aforementioned running buffer was composed of 20 mmol/L of HEPES, 500 mmol/L of NaCl, 0.1 mmol/L of MgCl₂, and 0.1% Triton X-100 (registered trademark), with the pH thereof being 7.2. As a blocking agent for suppressing nonspecific binding, tRNA was used in a concentration of 1 mg/mL. In a comparative example, signal intensity was measured in the same manner except that the aforementioned comparative example RNA was used in place of the aforementioned example RNA aptamers.

Binding result, binds:
GGGACAGUAAGACACGUAGCACCAGUGCCUGGACGUGCAGU (ssRNA) [R8c6_1-21-S8]
GGGAGUAAGACACGUAGCACCAGUGCCUGGACGUGCAGU (ssRNA) [R8c6_1-23-S8]
GGGAGUAAGACACGUAGCACCAGUGCCUGGACGUGCAGU (ssRNA, 2'-F on all C and U) [2'F-R8c6_1-23-S8]
GGGAAGACACGUAGCACCAGUGUGCCUGGACGUGCAGU (ssRNA, 2'-F on all C and U) [2'F-R8c6_1-26-S6]
GGGUAAGCACGUAGCACCAGUGUGCCUGGACGUGCAGU (ssRNA, 2'-F on all C and U) [2'F-R8c6_1-25-S6A]
GGGUAAGACACGUAGCACCGUGUGCCGGACGUGCAGU (ssRNA, 2'-F on all C and U) [2'F-R8c6_1-25-S6A2]
GGGCAGUAAGACACGUAGCACCAGUGUGCCUGGACGUGCAGU (ssRNA) [R8c6_1-22-S6]
GGGCAGUAAGACACGUAGCACCAGUGUGCCUGGACGUGCAGU (ssRNA, 2'-F on all C and U) [2'F-R8c6_1-22-S6]
GGGACAGUAAGACACGUAGCACCAGUGUGCCUGGACGUGCAGU (ssRNA) [R8c6_1-21-S6]
GGGAGUAAGACACGUAGCACCAGUGUGCCUGGACGUGCAGU (ssRNA) [R8c6_1-23-S6]
GGGAGUAAGACACGUAGCACCAGUGUGCCUGGACGUGCAGU (ssRNA, 2'-F on all C and U) [2'F-R8c6_1-23-S6]
GGGUAAGACACGUAGAACCAGUGACUGGAAGUGCAGU (ssRNA) [R8c6_1-25-S8CA]
GGGUAAGACACGUAGCACCAGUGCCUGGACGUGCAGU (ssRNA, 2'-F on all C and U) [2'F-R8c6_1-25-S8]
GGGUAAGACACGUAGAACCAGUGACUGGAAGUGCAGU (ssRNA, 2'-F on all C and U) [2'F-R8c6_1-25-S8CA]
GGGCAGUAAGACACGUAGCACCAGUGCCUGGACGUGCAGU (ssRNA) [R8c6_1-22-S8]
GGGCAGUAAGACACGUAGCACCAGUGCCUGGACGUGCAGU (ssRNA, 2'-F on all C and U) [2'F-R8c6_1-22-S8]
GGGAGACACGUAGCACCAGUGUGCCUGGACGUGCAGU (ssRNA, 2'-F on all C and U) [2'F-R8c6_1-27-S6]
GGGGUAAGACACGUAGCACCAGUGCCUGGACGUGCAGU (ssRNA) [R8c6_1-24-S8]
GGGGUAAGACACGUAGCACCAGUGCCUGGACGUGCAGU (ssRNA, 2'-F on all C and U) [2'F-R8c6_1-24-S8]
GGGUAAGACACGUAGCACCAGUGUGCCUGGAGUGCAGU (ssRNA, 2'-F on all C and U) [2'F-R8c6_1-25-S6C2]
GGGUAAGACACGUAGACCAGUGUGCCUGGACGUGCAGU (ssRNA, 2'-F on all C and U) [2'F-R8c6_1-25-S6C]
GGGGUAAGACACGUAGCACCAGUGUGCCUGGACGUGCAGU (ssRNA) [R8c6_1-24-S6]
GGGGUAAGACACGUAGCACCAGUGUGCCUGGACGUGCAGU (ssRNA, 2'-F on all C and U) [2'F-R8c6_1-24-S6]
GGGUAAGACACGUAGCACCAGUGUGCCUGGACGUGCAGU (ssRNA, 2'-F on all C and U) [2'F-R8c6_1-25-S6]

Molecular target: T1, His-tagged HMGB1
Assay: SPR; 200 nM protein, 150 mM NaCl; above unmodified 40N
Conditions: tags: N-terminal His-tag
Description: First, a sensor chip (trade name: Sensor Chip SA, manufactured by GE Heathcare) specially made for a BIACORE was set on the aforementioned BLACORE (registered trademark) X. Biotinylate deoxythymidine (5 μmol/L) was injected into the flow cell 2 of the aforementioned sensor chip using a running buffer and subjected to binding until the signal intensity (RU: resonance unit) reached about 1000 RU. For the aforementioned biotinylated deoxythymidine, 20-base-long deoxythymidine in which the 5′ end was biotinylated was used. Then, 10 μg/mL of an RNA aptamer was injected at a flow rate of 20 μL/min for 1 min into the aforementioned flow cells 1 and 2 of the aforementioned chip using a running buffer and subjected to binding until the signal intensity reached about 1000 RU. Next, 675 nmol/L of the aforementioned His-tag-added HMGB1 was injected at a flow rate of 20 μL/min for 30 sec using the aforementioned running buffer, and under the same conditions the aforementioned running buffer was allowed to flow continuously for washing. Simultaneously with the injection of the aforementioned His-tag-added HMGB1 and washing with the aforementioned running buffer, signal intensity was measured. The aforementioned running buffer was composed of 20 mmol/L of HEPES, 500 mmol/L of NaCl, 0.1 mmol/L of MgCl₂, and 0.1% Triton X-100 (registered trademark), with the pH thereof being 7.2. As a blocking agent for suppressing nonspecific binding, tRNA was used in a concentration of 1 mg/mL. In a comparative example, signal intensity was measured in the same manner except that the aforementioned comparative example RNA was used in place of the aforementioned example RNA aptamers.
An analysis of ability to bind to the aforementioned His-tag-added HMGB1 (manufactured by Sigma) was carried out in the same manner as in (2) above of the aforementioned Example 1 except that the aforementioned fluorinated RNA aptamers were used, the concentration of the aforementioned His-tag-added HMGB1 was 200 nmol/L, the concentration of NaCl in the aforementioned running buffer was 150 mmol/L, and the injection time of the aforementioned His-tag-added HMGB1 was 60 seconds. Also, an analysis was carried out in the same manner on unmodified R8c6_{—}1 that was not fluorinated.

Binding result, binds:
B1
B2
B3
B4
B5
B6

Molecular target: T1, His-tagged HMGB1
Assay: SPR; 160 nM protein
Conditions: tags: N-terminal His-tag
Description: as §1, §2

Binding result, binds:
GGGUAAGCACGUAGCACCAGUGUGCCUGGACGUGCAGU (ssRNA) [R8c6_1-25-S6A]
GGGAAGACACGUAGCACCAGUGUGCCUGGACGUGCAGU (ssRNA) [R8c6_1-26-S6]
GGGUAAGACACGUAGCACCGUGUGCCGGACGUGCAGU (ssRNA) [R8c6_1-25-S6A2]
GGGUAAGACACGUAGCACCAGUGCCUGGACGUGCAGU (ssRNA) [R8c6_1-25-S8]
GGGUAAGACACGUAGCACCAGUGUGCCUGGACGUGCGU (ssRNA) [R8c6_1-25-S6A3]
GGGAGACACGUAGCACCAGUGUGCCUGGACGUGCAGU (ssRNA) [R8c6_1-27-S6]
GGGUAAGACACGUAGCACCAGUGUGCCUGGAGUGCAGU (ssRNA) [R8c6_1-25-S6C2]
GGGUAAGACACGUAGACCAGUGUGCCUGGACGUGCAGU (ssRNA) [R8c6_1-25-S6C]
GGGUAAGACACGUAGCACCAGUGUGCCUGGACGUGCAGU (ssRNA) [R8c6_1-25-S6]
